Assay results taken from the supplement of paper PMC10065799, “High-throughput profiling of sequence recognition by tyrosine kinases and SH2 domains using bacterial peptide display” (eLife, 2023).

Experiments:
[1] = molecular target: c-Src SH2; experiment: SH2 binding enrichment of the phosphorylated peptide, bacterial display (enrichment ratio); higher = better substrate or ligand; peptides without Tyr show the background
[2] = molecular target: Grb2 SH2 (UniProt P62993); experiment: as above
[3] = molecular target: SHP2-C SH2; experiment: as above
[4] = molecular target: EPHB2 (UniProt P29323); experiment: phosphorylation enrichment, bacterial display (enrichment ratio); higher = better substrate or ligand; peptides without Tyr show the background
[5] = system: AncSZ; experiment: as above
[6] = molecular target: FGFR1 (UniProt P11362); experiment: as above
[7] = molecular target: Jak2 (UniProt O60674); experiment: as above
[8] = molecular target: MERTK (UniProt Q12866); experiment: as above
[9] = system: c-Abl (mouse); experiment: as above
[10] = system: c-Src; experiment: as above
[11] = molecular target: EPHB1 (UniProt P54762); experiment: as above
[12] = system: Fer (mouse); experiment: as above
[13] = molecular target: FGFR3 (UniProt P22607); experiment: as above
[14] = molecular target: Fyn (UniProt P06241); experiment: as above
[15] = molecular target: Fes (UniProt P07332); experiment: as above
[16] = molecular target: Hck (UniProt P08631); experiment: as above
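Wherever SH2 binding enrichment of the phosphorylated peptide, bacterial display is given: peptide library displayed on the E. coli surface as eCPX fusions, selected cells deep-sequenced, score is each peptide's frequency after selection divided by its frequency in the input.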
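Wherever phosphorylation enrichment, bacterial display is given: 11-residue human phosphosite peptides and single-mutation variants displayed on the E. coli surface, counted by deep sequencing, each peptide's frequency after selection divided by its frequency in the unselected input library; frequency after pTyr selection over input frequency; kinase dosed for 20-30% of maximal phosphorylation in three min.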

Fyn, sequence (P06241 whole entry, looked up): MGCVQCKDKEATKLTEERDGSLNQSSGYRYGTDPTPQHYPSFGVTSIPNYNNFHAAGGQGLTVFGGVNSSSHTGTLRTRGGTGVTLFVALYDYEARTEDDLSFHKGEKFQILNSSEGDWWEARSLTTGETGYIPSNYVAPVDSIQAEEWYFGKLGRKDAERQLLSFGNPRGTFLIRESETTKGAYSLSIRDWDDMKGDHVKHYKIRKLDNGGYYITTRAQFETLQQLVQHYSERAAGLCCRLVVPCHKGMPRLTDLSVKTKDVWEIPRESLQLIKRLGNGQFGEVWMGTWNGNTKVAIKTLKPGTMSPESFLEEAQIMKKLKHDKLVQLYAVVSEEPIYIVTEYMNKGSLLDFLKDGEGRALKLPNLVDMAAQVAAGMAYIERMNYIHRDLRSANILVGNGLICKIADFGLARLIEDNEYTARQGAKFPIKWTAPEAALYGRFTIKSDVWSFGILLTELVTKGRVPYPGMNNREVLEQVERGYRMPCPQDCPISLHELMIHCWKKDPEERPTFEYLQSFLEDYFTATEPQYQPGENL
Fes, sequence (P07332 whole entry, looked up): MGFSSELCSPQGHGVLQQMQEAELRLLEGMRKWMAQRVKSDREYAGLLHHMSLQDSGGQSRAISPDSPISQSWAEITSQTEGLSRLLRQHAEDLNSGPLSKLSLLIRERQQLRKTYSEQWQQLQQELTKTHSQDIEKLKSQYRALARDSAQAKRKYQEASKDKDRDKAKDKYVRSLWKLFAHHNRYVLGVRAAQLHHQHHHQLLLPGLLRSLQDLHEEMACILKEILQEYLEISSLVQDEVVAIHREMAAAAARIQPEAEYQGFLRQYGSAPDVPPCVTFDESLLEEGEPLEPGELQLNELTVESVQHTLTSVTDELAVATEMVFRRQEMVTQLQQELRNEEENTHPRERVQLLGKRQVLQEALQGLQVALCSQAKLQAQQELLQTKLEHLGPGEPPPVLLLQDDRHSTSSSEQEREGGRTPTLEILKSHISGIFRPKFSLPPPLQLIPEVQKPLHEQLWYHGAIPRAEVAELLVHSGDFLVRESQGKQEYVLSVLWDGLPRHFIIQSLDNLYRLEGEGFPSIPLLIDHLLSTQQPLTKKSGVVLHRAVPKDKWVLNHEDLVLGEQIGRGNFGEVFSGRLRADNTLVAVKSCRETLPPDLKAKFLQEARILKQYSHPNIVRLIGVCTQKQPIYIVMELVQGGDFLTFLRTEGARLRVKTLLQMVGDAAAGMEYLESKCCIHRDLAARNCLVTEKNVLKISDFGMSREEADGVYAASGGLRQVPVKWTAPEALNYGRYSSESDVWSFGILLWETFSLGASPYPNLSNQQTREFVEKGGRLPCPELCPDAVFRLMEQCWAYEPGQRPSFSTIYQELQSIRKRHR
EPHB2, sequence (P29323 whole entry, looked up): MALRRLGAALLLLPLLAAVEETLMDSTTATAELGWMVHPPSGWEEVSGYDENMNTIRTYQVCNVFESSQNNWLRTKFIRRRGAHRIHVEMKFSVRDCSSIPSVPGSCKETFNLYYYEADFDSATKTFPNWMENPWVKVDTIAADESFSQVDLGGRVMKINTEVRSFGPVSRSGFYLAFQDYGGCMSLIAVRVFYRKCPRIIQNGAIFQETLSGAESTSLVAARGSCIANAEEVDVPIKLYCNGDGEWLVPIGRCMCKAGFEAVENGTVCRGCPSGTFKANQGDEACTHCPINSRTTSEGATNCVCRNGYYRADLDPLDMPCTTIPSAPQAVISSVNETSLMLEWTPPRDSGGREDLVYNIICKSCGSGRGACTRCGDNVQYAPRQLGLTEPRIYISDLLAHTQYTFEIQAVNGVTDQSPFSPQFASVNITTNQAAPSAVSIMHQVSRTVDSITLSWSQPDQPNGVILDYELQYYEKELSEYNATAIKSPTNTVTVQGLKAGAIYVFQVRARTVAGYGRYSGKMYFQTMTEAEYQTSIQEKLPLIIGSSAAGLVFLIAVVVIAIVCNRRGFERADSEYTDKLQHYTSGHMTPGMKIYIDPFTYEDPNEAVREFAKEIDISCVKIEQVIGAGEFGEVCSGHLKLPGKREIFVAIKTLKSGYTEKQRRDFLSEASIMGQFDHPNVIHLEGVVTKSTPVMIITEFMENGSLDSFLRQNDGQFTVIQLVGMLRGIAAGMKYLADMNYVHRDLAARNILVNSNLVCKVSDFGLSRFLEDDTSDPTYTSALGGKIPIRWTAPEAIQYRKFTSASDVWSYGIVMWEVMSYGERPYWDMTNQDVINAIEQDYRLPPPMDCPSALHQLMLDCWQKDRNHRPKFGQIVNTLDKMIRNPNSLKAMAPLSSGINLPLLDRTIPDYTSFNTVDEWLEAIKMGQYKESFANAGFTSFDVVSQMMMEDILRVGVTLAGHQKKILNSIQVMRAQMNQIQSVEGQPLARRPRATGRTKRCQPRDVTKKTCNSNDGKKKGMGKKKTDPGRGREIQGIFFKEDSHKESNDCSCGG
FGFR3, sequence (P22607 whole entry, looked up): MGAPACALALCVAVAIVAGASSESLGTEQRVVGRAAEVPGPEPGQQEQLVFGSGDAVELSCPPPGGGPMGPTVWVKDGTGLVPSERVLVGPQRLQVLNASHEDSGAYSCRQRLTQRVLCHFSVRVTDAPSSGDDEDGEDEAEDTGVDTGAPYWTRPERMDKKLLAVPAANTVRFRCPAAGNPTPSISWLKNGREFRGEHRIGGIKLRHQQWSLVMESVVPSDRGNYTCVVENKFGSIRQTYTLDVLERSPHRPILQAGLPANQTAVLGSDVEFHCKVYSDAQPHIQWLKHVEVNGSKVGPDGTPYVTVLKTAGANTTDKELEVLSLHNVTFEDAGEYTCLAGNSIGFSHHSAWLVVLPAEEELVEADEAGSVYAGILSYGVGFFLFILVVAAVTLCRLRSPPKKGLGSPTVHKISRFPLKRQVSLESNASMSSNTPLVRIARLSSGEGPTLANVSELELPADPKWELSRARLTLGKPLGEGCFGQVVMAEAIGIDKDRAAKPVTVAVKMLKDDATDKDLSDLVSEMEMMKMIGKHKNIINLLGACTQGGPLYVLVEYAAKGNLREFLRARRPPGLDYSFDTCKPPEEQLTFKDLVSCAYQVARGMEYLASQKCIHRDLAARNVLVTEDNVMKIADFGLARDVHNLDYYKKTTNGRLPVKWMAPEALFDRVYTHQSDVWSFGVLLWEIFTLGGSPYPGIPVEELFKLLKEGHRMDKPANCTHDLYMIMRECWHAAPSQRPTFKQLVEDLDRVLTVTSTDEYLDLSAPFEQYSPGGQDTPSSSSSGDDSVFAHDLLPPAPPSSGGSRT
Grb2 SH2, sequence (P62993 whole entry, looked up): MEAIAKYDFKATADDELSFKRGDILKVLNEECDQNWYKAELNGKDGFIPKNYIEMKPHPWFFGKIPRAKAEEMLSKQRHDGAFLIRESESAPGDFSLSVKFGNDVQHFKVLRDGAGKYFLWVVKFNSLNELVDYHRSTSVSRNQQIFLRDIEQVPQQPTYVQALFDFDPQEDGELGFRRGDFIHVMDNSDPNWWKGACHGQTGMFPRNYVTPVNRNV
FGFR1, sequence (P11362 whole entry, looked up): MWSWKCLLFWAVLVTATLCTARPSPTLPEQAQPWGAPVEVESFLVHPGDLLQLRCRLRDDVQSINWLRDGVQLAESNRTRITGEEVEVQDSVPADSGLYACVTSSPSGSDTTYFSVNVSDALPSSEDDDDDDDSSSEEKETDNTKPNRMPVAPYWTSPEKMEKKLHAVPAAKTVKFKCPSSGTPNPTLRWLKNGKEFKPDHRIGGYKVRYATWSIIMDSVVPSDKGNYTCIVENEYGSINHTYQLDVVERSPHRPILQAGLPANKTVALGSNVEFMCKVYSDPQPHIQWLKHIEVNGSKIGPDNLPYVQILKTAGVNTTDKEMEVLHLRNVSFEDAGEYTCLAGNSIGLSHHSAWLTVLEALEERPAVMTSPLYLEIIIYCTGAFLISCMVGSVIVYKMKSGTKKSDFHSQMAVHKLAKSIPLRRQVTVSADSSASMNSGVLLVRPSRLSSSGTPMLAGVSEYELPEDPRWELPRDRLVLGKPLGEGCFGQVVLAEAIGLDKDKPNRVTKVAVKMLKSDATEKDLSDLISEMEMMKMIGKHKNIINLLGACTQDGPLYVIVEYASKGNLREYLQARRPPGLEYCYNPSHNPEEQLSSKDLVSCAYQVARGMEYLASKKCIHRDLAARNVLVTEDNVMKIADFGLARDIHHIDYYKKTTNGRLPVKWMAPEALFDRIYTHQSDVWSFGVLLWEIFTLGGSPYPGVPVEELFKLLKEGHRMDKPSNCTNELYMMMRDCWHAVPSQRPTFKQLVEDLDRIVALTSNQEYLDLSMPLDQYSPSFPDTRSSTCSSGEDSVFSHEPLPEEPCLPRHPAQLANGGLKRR
Hck, sequence (P08631 whole entry, looked up, the tested form may be a part): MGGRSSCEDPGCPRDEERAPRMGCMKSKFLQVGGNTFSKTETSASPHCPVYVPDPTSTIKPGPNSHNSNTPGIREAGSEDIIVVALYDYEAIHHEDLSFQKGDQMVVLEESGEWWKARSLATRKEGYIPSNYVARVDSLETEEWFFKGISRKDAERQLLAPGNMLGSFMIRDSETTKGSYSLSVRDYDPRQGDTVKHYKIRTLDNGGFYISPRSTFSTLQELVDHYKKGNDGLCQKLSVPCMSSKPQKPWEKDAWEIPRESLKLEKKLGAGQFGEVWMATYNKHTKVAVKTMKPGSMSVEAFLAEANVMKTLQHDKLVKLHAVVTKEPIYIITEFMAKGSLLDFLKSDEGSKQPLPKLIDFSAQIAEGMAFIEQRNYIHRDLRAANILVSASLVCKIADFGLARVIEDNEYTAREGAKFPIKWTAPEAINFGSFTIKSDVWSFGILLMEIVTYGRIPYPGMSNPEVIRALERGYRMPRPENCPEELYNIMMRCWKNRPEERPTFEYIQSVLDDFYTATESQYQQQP

Sequence: VKPENYRRQDI [VHL_Y175_L178Q]
- SH2 binding enrichment [1]: 0.494
- SH2 binding enrichment [2]: 0.862
- SH2 binding enrichment [3]: 0.607
- phosphorylation enrichment [4]: 0.367
- phosphorylation enrichment [5]: 0.475
- phosphorylation enrichment [6]: 0.343
- phosphorylation enrichment [7]: 0.469
- phosphorylation enrichment [8]: 0.379
- phosphorylation enrichment [9]: 0.465
- phosphorylation enrichment [10]: 0.365
- phosphorylation enrichment [11]: 0.274
- phosphorylation enrichment [12]: 0.304
- phosphorylation enrichment [13]: 0.4
- phosphorylation enrichment [14]: 0.344
- phosphorylation enrichment [15]: 0.504
- phosphorylation enrichment [16]: 0.309

Sequence: FSIDFYRVGGH [NTRK2_Y707_T704I_YF]
- SH2 binding enrichment [1]: 0.548
- SH2 binding enrichment [2]: 0.926
- SH2 binding enrichment [3]: 0.814
- phosphorylation enrichment [4]: 0.573
- phosphorylation enrichment [5]: 1.19
- phosphorylation enrichment [6]: 0.531
- phosphorylation enrichment [7]: 1.24
- phosphorylation enrichment [8]: 0.429
- phosphorylation enrichment [9]: 0.837
- phosphorylation enrichment [10]: 0.436
- phosphorylation enrichment [11]: 0.593
- phosphorylation enrichment [12]: 0.466
- phosphorylation enrichment [13]: 0.719
- phosphorylation enrichment [14]: 0.465
- phosphorylation enrichment [15]: 1.37
- phosphorylation enrichment [16]: 0.456

Sequence: QRRLVYFEGGA [RYR1_Y245_YF]
- SH2 binding enrichment [1]: 0.727
- SH2 binding enrichment [2]: 1.58
- SH2 binding enrichment [3]: 0.944
- phosphorylation enrichment [4]: 0.995
- phosphorylation enrichment [5]: 3.89
- phosphorylation enrichment [6]: 1.34
- phosphorylation enrichment [7]: 0.825
- phosphorylation enrichment [8]: 0.531
- phosphorylation enrichment [9]: 0.912
- phosphorylation enrichment [10]: 0.376
- phosphorylation enrichment [11]: 1.18
- phosphorylation enrichment [12]: 1.33
- phosphorylation enrichment [13]: 0.902
- phosphorylation enrichment [14]: 1.02
- phosphorylation enrichment [15]: 1.39
- phosphorylation enrichment [16]: 1.13

Sequence: CHKCTYKVTGL
- SH2 binding enrichment [1]: 1.34
- SH2 binding enrichment [2]: 1.46
- SH2 binding enrichment [3]: 1.46
- phosphorylation enrichment [4]: 0.462
- phosphorylation enrichment [5]: 0.622
- phosphorylation enrichment [6]: 0.488
- phosphorylation enrichment [7]: 0.556
- phosphorylation enrichment [8]: 0.453
- phosphorylation enrichment [9]: 0.523
- phosphorylation enrichment [10]: 0.504
- phosphorylation enrichment [11]: 0.444
- phosphorylation enrichment [12]: 0.419
- phosphorylation enrichment [13]: 0.693
- phosphorylation enrichment [14]: 0.49
- phosphorylation enrichment [15]: 0.682
- phosphorylation enrichment [16]: 0.472

Sequence: VGAKTYKMSMA [CPS1_Y309_A304V]
- SH2 binding enrichment [1]: 0.408
- SH2 binding enrichment [2]: 0.725
- SH2 binding enrichment [3]: 0.421
- phosphorylation enrichment [4]: 0.326
- phosphorylation enrichment [5]: 0.645
- phosphorylation enrichment [6]: 0.367
- phosphorylation enrichment [7]: 0.511
- phosphorylation enrichment [8]: 0.428
- phosphorylation enrichment [9]: 0.57
- phosphorylation enrichment [10]: 0.498
- phosphorylation enrichment [11]: 0.437
- phosphorylation enrichment [12]: 0.268
- phosphorylation enrichment [13]: 0.382
- phosphorylation enrichment [14]: 0.399
- phosphorylation enrichment [15]: 0.524
- phosphorylation enrichment [16]: 0.307

Sequence: YYYDLYGGEKF [PTPN11_Y66_D61Y]
- SH2 binding enrichment [1]: 4.39
- SH2 binding enrichment [2]: 1.43
- SH2 binding enrichment [3]: 1.63
- phosphorylation enrichment [4]: 11.5
- phosphorylation enrichment [5]: 1.98
- phosphorylation enrichment [6]: 14.7
- phosphorylation enrichment [7]: 5.36
- phosphorylation enrichment [8]: 9.48
- phosphorylation enrichment [9]: 0.964
- phosphorylation enrichment [10]: 5.71
- phosphorylation enrichment [11]: 7.99
- phosphorylation enrichment [12]: 4.15
- phosphorylation enrichment [13]: 13.6
- phosphorylation enrichment [14]: 5.97
- phosphorylation enrichment [15]: 1.3
- phosphorylation enrichment [16]: 6.45

Sequence: PSQRCYVFFFS [PTEN_Y174_R173C_YF]
- SH2 binding enrichment [1]: 0.705
- SH2 binding enrichment [2]: 1.2
- SH2 binding enrichment [3]: 1.11
- phosphorylation enrichment [4]: 0.735
- phosphorylation enrichment [5]: 1.37
- phosphorylation enrichment [6]: 0.837
- phosphorylation enrichment [7]: 1.24
- phosphorylation enrichment [8]: 0.646
- phosphorylation enrichment [9]: 0.882
- phosphorylation enrichment [10]: 0.646
- phosphorylation enrichment [11]: 0.865
- phosphorylation enrichment [12]: 0.703
- phosphorylation enrichment [13]: 1.35
- phosphorylation enrichment [14]: 0.79
- phosphorylation enrichment [15]: 1.73
- phosphorylation enrichment [16]: 0.616

Sequence: SVVVPYEPPVV [TP53_Y220_E224V]
- SH2 binding enrichment [1]: 0.606
- SH2 binding enrichment [2]: 0.709
- SH2 binding enrichment [3]: 0.627
- phosphorylation enrichment [4]: 0.574
- phosphorylation enrichment [5]: 1
- phosphorylation enrichment [6]: 0.446
- phosphorylation enrichment [7]: 0.731
- phosphorylation enrichment [8]: 0.397
- phosphorylation enrichment [9]: 0.659
- phosphorylation enrichment [10]: 0.437
- phosphorylation enrichment [11]: 0.518
- phosphorylation enrichment [12]: 0.457
- phosphorylation enrichment [13]: 0.61
- phosphorylation enrichment [14]: 0.453
- phosphorylation enrichment [15]: 0.921
- phosphorylation enrichment [16]: 0.437

Sequence: AEVIWYKGDEE
- SH2 binding enrichment [1]: 0.446
- SH2 binding enrichment [2]: 1.11
- SH2 binding enrichment [3]: 0.531
- phosphorylation enrichment [4]: 0.483
- phosphorylation enrichment [5]: 1.26
- phosphorylation enrichment [6]: 0.359
- phosphorylation enrichment [7]: 1.08
- phosphorylation enrichment [8]: 0.343
- phosphorylation enrichment [9]: 0.616
- phosphorylation enrichment [10]: 0.303
- phosphorylation enrichment [11]: 0.41
- phosphorylation enrichment [12]: 0.342
- phosphorylation enrichment [13]: 0.636
- phosphorylation enrichment [14]: 0.369
- phosphorylation enrichment [15]: 1.07
- phosphorylation enrichment [16]: 0.414

Sequence: AAESTYDKILK [GDNF_Y156_T154S]
- SH2 binding enrichment [1]: 5.23
- SH2 binding enrichment [2]: 1.08
- SH2 binding enrichment [3]: 0.672
- phosphorylation enrichment [4]: 0.508
- phosphorylation enrichment [5]: 0.681
- phosphorylation enrichment [6]: 0.391
- phosphorylation enrichment [7]: 0.682
- phosphorylation enrichment [8]: 0.401
- phosphorylation enrichment [9]: 0.563
- phosphorylation enrichment [10]: 0.719
- phosphorylation enrichment [11]: 0.463
- phosphorylation enrichment [12]: 0.418
- phosphorylation enrichment [13]: 0.586
- phosphorylation enrichment [14]: 0.76
- phosphorylation enrichment [15]: 0.886
- phosphorylation enrichment [16]: 1.75

Sequence: EKFVPYFDLFM [IPO5_Y530_YF]
- SH2 binding enrichment [1]: 1.11
- SH2 binding enrichment [2]: 1.05
- SH2 binding enrichment [3]: 0.827
- phosphorylation enrichment [4]: 0.652
- phosphorylation enrichment [5]: 1.33
- phosphorylation enrichment [6]: 1.74
- phosphorylation enrichment [7]: 1.32
- phosphorylation enrichment [8]: 0.444
- phosphorylation enrichment [9]: 0.858
- phosphorylation enrichment [10]: 0.596
- phosphorylation enrichment [11]: 1.06
- phosphorylation enrichment [12]: 0.608
- phosphorylation enrichment [13]: 1.71
- phosphorylation enrichment [14]: 0.57
- phosphorylation enrichment [15]: 1.35
- phosphorylation enrichment [16]: 0.581

Sequence: LDFNEYFRFLN [HPRT1_Y198_D201Y_YF]
- SH2 binding enrichment [1]: 0.719
- SH2 binding enrichment [2]: 1.49
- SH2 binding enrichment [3]: 1.2
- phosphorylation enrichment [4]: 0.924
- phosphorylation enrichment [5]: 2.34
- phosphorylation enrichment [6]: 2.7
- phosphorylation enrichment [7]: 6.54
- phosphorylation enrichment [8]: 0.573
- phosphorylation enrichment [9]: 1.6
- phosphorylation enrichment [10]: 3.62
- phosphorylation enrichment [11]: 0.592
- phosphorylation enrichment [12]: 0.562
- phosphorylation enrichment [13]: 2.1
- phosphorylation enrichment [14]: 2.25
- phosphorylation enrichment [15]: 1.29
- phosphorylation enrichment [16]: 1.08

Sequence: KLVQLYVVCTK [BTK_Y461_G462V]
- SH2 binding enrichment [1]: 0.482
- SH2 binding enrichment [2]: 0.881
- SH2 binding enrichment [3]: 1.01
- phosphorylation enrichment [4]: 0.523
- phosphorylation enrichment [5]: 1.3
- phosphorylation enrichment [6]: 0.565
- phosphorylation enrichment [7]: 1.2
- phosphorylation enrichment [8]: 0.45
- phosphorylation enrichment [9]: 0.928
- phosphorylation enrichment [10]: 0.486
- phosphorylation enrichment [11]: 0.809
- phosphorylation enrichment [12]: 0.584
- phosphorylation enrichment [13]: 0.785
- phosphorylation enrichment [14]: 0.416
- phosphorylation enrichment [15]: 1.16
- phosphorylation enrichment [16]: 0.528

Sequence: FAANFYKLLGN [ROR2_Y646_D644N_YF]
- SH2 binding enrichment [1]: 0.468
- SH2 binding enrichment [2]: 0.676
- SH2 binding enrichment [3]: 0.453
- phosphorylation enrichment [4]: 0.462
- phosphorylation enrichment [5]: 0.898
- phosphorylation enrichment [6]: 0.425
- phosphorylation enrichment [7]: 0.924
- phosphorylation enrichment [8]: 0.419
- phosphorylation enrichment [9]: 0.726
- phosphorylation enrichment [10]: 0.46
- phosphorylation enrichment [11]: 0.476
- phosphorylation enrichment [12]: 0.347
- phosphorylation enrichment [13]: 0.512
- phosphorylation enrichment [14]: 0.365
- phosphorylation enrichment [15]: 0.986
- phosphorylation enrichment [16]: 0.464

Sequence: REHTVYWEPRK [MAGEA4_Y240_G241W]
- SH2 binding enrichment [1]: 0.724
- SH2 binding enrichment [2]: 1.08
- SH2 binding enrichment [3]: 1.39
- phosphorylation enrichment [4]: 1.19
- phosphorylation enrichment [5]: 1.1
- phosphorylation enrichment [6]: 2.31
- phosphorylation enrichment [7]: 0.888
- phosphorylation enrichment [8]: 3.77
- phosphorylation enrichment [9]: 8.8
- phosphorylation enrichment [10]: 1.85
- phosphorylation enrichment [11]: 4.33
- phosphorylation enrichment [12]: 0.607
- phosphorylation enrichment [13]: 2.42
- phosphorylation enrichment [14]: 1.39
- phosphorylation enrichment [15]: 0.831
- phosphorylation enrichment [16]: 5.92

Sequence: TSRVLYPNDNF [PYGM_Y281_I276T]
- SH2 binding enrichment [1]: 0.643
- SH2 binding enrichment [2]: 0.922
- SH2 binding enrichment [3]: 0.771
- phosphorylation enrichment [4]: 0.424
- phosphorylation enrichment [5]: 0.64
- phosphorylation enrichment [6]: 0.545
- phosphorylation enrichment [7]: 0.638
- phosphorylation enrichment [8]: 0.408
- phosphorylation enrichment [9]: 0.51
- phosphorylation enrichment [10]: 0.415
- phosphorylation enrichment [11]: 0.456
- phosphorylation enrichment [12]: 0.432
- phosphorylation enrichment [13]: 0.436
- phosphorylation enrichment [14]: 0.456
- phosphorylation enrichment [15]: 0.7
- phosphorylation enrichment [16]: 0.558

Sequence: LTQRTYMSENN [GPAA1_Y49_A54N]
- SH2 binding enrichment [1]: 0.442
- SH2 binding enrichment [2]: 0.709
- SH2 binding enrichment [3]: 0.676
- phosphorylation enrichment [4]: 0.879
- phosphorylation enrichment [5]: 1.11
- phosphorylation enrichment [6]: 1.13
- phosphorylation enrichment [7]: 0.67
- phosphorylation enrichment [8]: 0.87
- phosphorylation enrichment [9]: 1.01
- phosphorylation enrichment [10]: 0.549
- phosphorylation enrichment [11]: 0.783
- phosphorylation enrichment [12]: 0.867
- phosphorylation enrichment [13]: 1.09
- phosphorylation enrichment [14]: 0.479
- phosphorylation enrichment [15]: 1.46
- phosphorylation enrichment [16]: 0.703
